According to publication PMC8498969, “An Integrated Systems Biology Approach Identifies the Proteasome as A Critical Host Machinery for ZIKV and DENV Replication” (Genomics, Proteomics & Bioinformatics, 2021):

T1: PLEK on the HuProt array (human, UniProt P08567 1-350)
T1 construct: PLEK (pleckstrin), human; array proteins are said to come from full-length genes; source: immobilised on the Human Proteome Microarray v3.0 (HuProt array)
T1 sequence (looked up): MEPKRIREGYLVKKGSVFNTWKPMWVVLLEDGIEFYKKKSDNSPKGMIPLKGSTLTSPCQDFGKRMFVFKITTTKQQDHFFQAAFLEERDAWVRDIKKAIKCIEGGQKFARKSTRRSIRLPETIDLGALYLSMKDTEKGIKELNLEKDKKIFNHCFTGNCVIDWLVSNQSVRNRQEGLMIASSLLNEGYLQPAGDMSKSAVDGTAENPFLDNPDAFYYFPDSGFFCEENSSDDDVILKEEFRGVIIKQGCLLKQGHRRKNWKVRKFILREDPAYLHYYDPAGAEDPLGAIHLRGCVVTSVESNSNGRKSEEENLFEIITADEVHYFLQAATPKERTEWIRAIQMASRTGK

T2: DDX49 on the HuProt array (human, UniProt Q9Y6V7 1-483)
T2 construct: DDX49, human; array proteins are said to come from full-length genes; source: immobilised on the Human Proteome Microarray v3.0 (HuProt array)
T2 sequence (looked up): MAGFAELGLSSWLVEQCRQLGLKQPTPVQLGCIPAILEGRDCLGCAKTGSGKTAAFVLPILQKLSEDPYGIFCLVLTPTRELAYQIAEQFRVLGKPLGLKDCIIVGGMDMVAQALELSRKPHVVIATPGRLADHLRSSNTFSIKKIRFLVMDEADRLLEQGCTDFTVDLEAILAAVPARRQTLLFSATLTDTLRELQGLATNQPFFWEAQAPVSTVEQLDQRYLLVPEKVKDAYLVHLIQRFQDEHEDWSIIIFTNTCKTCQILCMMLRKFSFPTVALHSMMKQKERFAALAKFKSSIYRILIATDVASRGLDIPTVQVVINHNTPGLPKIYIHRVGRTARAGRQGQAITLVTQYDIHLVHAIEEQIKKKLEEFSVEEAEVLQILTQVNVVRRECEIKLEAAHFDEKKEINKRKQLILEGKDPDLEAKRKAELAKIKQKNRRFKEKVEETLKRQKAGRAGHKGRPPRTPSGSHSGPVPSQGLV


Assays:
PLEK on the HuProt array = molecular target: T1, PLEK on the HuProt array; assay: peptide or protein array; details: both partners purified
[1] = molecular target: T2, DDX49 on the HuProt array; assay: peptide or protein array; details: both partners purified

| Binder | binding result (PLEK on the HuProt array) | binding result [1] |
| --- | --- | --- |
| ZIKV-NS2A, N-terminal GST fusion, Cy5-labelled (natural protein, Cy5 (NHS-tethered dye), sites not stated, source: yeast (vector pEGH-A), purified on glutathione beads; not shown: GST, N-terminal, kept) GSTDHMDHFSLGVLVILLMVQEGLKKRMTTKIIMSTSMAVLVVMILGGFSMSDLAKLVILMGATFAEMNTGGDVAHLALVAAFKVRPALLVSFIFRANWTPRESMLLALASCLLQTAISALEGDLMVLINGFALAWLAIRAMAVPRTDNIALPILAALTPLARGTLLVAWRAGLATCGGIMLLSLKGKGSVKKNLPFVMALGLTAVRVVDPINVVGLLLLTRSGKR | binds | – |
| ZIKV-NS4B, N-terminal GST fusion, Cy5-labelled (natural protein, Cy5 (NHS-tethered dye), sites not stated, also called SN4B; source: yeast (vector pEGH-A), purified on glutathione beads; not shown: GST, N-terminal, kept) NELGWLERTKNDIAHLMGRREEGATMGFSMDIDLRPASAWAIYAALTTLITPAVQHAVTTSYNNYSLMAMATQAGVLFGMGKGMPFMHGDLGVPLLMMGCYSQLTPLTLIVAIILLVAHYMYLIPGLQAAAARAAQKRTAAGIMKNPVVDGIVVTDIDTMTIDPQVEKKMGQVLLIAVAISSAVLLRTAWGWGEAGALITAATSTLWEGSPNKYWNSSTATSLCNIFRGSYLAGASLIYTVTRNAGLVKRR | – | binds |
